Experimental data: the Human Domainome abundance scans (Beltran et al. 2025)
± gives the uncertainty stated by the source.

B1: Retinoic acid receptor beta, residues 85 to 161; numbered along this chain, P10826 (parent)
chain: YKPCFVCQDKSSGYHYGVSACEGCKGFFRRSIQKNMIYTCHRDKNCVINKVTRNRCQYCRLQKCFEVGMSKESVRND

Variants of: B1
Assay: abundance fitness (aPCA) (normalised: wild type 0, dead -1); higher = more abundant; growth selection in yeast, the domain comes from the species named
Conditions: Homo sapiens

| Variant | abundance fitness |
| --- | --- |
| YKPCFVCQDKSSGYHYGVSACEGCKGFFRRSIQKNMIYTCHRDKNCVINKVTRNRCQYCRLQKCFEVLMSKESVRND [G68L] | -0.807 ± 0.11 |
| YKPCFVCQDKSSGYHYGVSACEGCKGFFRRSIQKNMIYTCHRDKNCVINKVTRNRCQYCRLQKCFEVEMSKESVRND [G68E] | -0.763 ± 0.14 |
| YKPCFVCQDKSSGYHYGVSACEGCKGFFRRSIQKNMIYTCHRDKNCVINKVTRNRCQYCRLQKCFEVRMSKESVRND [G68R] | -0.681 ± 0.078 |
| YKPCFVCQDKSSGYHYGVSACEGCKGFFRRSIQKNMIYTCHRDKNCVINKVTRNRCQYCRLQKCFEVKMSKESVRND [G68K] | -0.392 ± 0.085 |
| YKPCFVCQDKSSGYHYGVSACEGCKGFFRRSIQKNMIYTCHRDKNCVINKVTRNRCQYCRLQKCFEVVMSKESVRND [G68V] | -0.81 ± 0.12 |
| YKPCFVCQDKSSGYHYGVSACEGCKGFFRRSIQKNMIYTCHRDKNCVINKVTRNRCQYCRLQKCFEVCMSKESVRND [G68C] | -0.698 ± 0.16 |
| YKPCFVCQDKSSGYHYGVSACEGCKGFFRRSIQKNMIYTCHRDKNCVINKVTRNRCQYCRLQKCFEVSMSKESVRND [G68S] | -0.595 ± 0.075 |
| YKPCFVCQDKSSGYHYGVSACEGCKGFFRRSIQKNMIYTCHRDKNCVINKVTRNRCQYCRLQKCFEVMMSKESVRND [G68M] | -0.77 ± 0.17 |
| YKPCFVCQDKSSGYHYGVSACEGCKGFFRRSIQKNMIYTCHRDKNCVINKVTRNRCQYCRLQKCFEVHMSKESVRND [G68H] | -0.743 ± 0.24 |
| YKPCFVCQDKSSGYHYGVSACEGCKGFFRRSIQKNMIYTCHRDKNCVINKVTRNRCQYCRLQKCFEVTMSKESVRND [G68T] | -0.687 ± 0.12 |
| YKPCFVCQDKSSGYHYGVSACEGCKGFFRRSIQKNMIYTCHRDKNCVINKVTRNRCQYCRLQKCFEVWMSKESVRND [G68W] | -0.779 ± 0.12 |
| YKPCFVCQDKSSGYHYGVSACEGCKGFFRRSIQKNMIYTCHRDKNCVINKVTRNRCQYCRLQKCFEVQMSKESVRND [G68Q] | -0.698 ± 0.17 |
| YKPCFVCQDKSSGYHYGVSACEGCKGFFRRSIQKNMIYTCHRDKNCVINKVTRNRCQYCRLQKCFEVPMSKESVRND [G68P] | -0.738 ± 0.17 |
| YKPCFVCQDKSSGYHYGVSACEGCKGFFRRSIQKNMIYTCHRDKNCVINKVTRNRCQYCRLQKCFEVFMSKESVRND [G68F] | -0.204 ± 0.12 |
| YKPCFVCQDKSSGYHYGVSACEGCKGFFRRSIQKNMIYTCHRDKNCVINKVTRNRCQYCRLQKCFEVDMSKESVRND [G68D] | -0.663 ± 0.12 |
| YKPCFVCQDKSSGYHYGVSACEGCKGFFRRSIQKNMIYTCHRDKNCVINKVTRNRCQYCRLQKCFEVIMSKESVRND [G68I] | -0.95 ± 0.24 |
| YKPCFVCQDKSSGYHYGVSACEGCKGFFRRSIQKNMIYTCHRDKNCVINKVTRNRCQYCRLQKCFEVYMSKESVRND [G68Y] | -1.05 ± 0.41 |
| YKPCFVCQDKSSGYHYGVSACEGCKGFFRRSIQKNMIYTCHRDKNCVINKVTRNRCQYCRLQKCFEVAMSKESVRND [G68A] | -0.804 ± 0.11 |

| Variant | abundance fitness |
| --- | --- |
| YKPCFVCQDKSSGYHYGVSACEGCKGFFRRSIQKNMIYTCHRDKNCVINKVTRNRCQYCRLQKCFEVNMSKESVRND [G68N] | -0.338 ± 0.12 |
| YKPCFVCQDKSSGYHYGVSACEGCKGFFRRSIQKNMIYTCHRDKNCVINKVTRNRCQYCRLQKCFEVGVSKESVRND [M69V] | -0.591 ± 0.096 |
| YKPCFVCQDKSSGYHYGVSACEGCKGFFRRSIQKNMIYTCHRDKNCVINKVTRNRCQYCRLQKCFEVGYSKESVRND [M69Y] | -0.588 ± 0.32 |
| YKPCFVCQDKSSGYHYGVSACEGCKGFFRRSIQKNMIYTCHRDKNCVINKVTRNRCQYCRLQKCFEVGCSKESVRND [M69C] | -0.31 ± 0.16 |
| YKPCFVCQDKSSGYHYGVSACEGCKGFFRRSIQKNMIYTCHRDKNCVINKVTRNRCQYCRLQKCFEVGTSKESVRND [M69T] | -0.515 ± 0.21 |
| YKPCFVCQDKSSGYHYGVSACEGCKGFFRRSIQKNMIYTCHRDKNCVINKVTRNRCQYCRLQKCFEVGASKESVRND [M69A] | -0.81 ± 0.16 |
| YKPCFVCQDKSSGYHYGVSACEGCKGFFRRSIQKNMIYTCHRDKNCVINKVTRNRCQYCRLQKCFEVGWSKESVRND [M69W] | -0.235 ± 0.066 |
| YKPCFVCQDKSSGYHYGVSACEGCKGFFRRSIQKNMIYTCHRDKNCVINKVTRNRCQYCRLQKCFEVGESKESVRND [M69E] | -0.751 ± 0.21 |
| YKPCFVCQDKSSGYHYGVSACEGCKGFFRRSIQKNMIYTCHRDKNCVINKVTRNRCQYCRLQKCFEVGNSKESVRND [M69N] | -0.725 ± 0.28 |
| YKPCFVCQDKSSGYHYGVSACEGCKGFFRRSIQKNMIYTCHRDKNCVINKVTRNRCQYCRLQKCFEVGISKESVRND [M69I] | -0.142 ± 0.38 |
| YKPCFVCQDKSSGYHYGVSACEGCKGFFRRSIQKNMIYTCHRDKNCVINKVTRNRCQYCRLQKCFEVGFSKESVRND [M69F] | -0.406 ± 0.27 |
| YKPCFVCQDKSSGYHYGVSACEGCKGFFRRSIQKNMIYTCHRDKNCVINKVTRNRCQYCRLQKCFEVGPSKESVRND [M69P] | -0.917 ± 0.39 |
| YKPCFVCQDKSSGYHYGVSACEGCKGFFRRSIQKNMIYTCHRDKNCVINKVTRNRCQYCRLQKCFEVGRSKESVRND [M69R] | -0.741 ± 0.11 |
| YKPCFVCQDKSSGYHYGVSACEGCKGFFRRSIQKNMIYTCHRDKNCVINKVTRNRCQYCRLQKCFEVGKSKESVRND [M69K] | -0.983 ± 0.35 |
| YKPCFVCQDKSSGYHYGVSACEGCKGFFRRSIQKNMIYTCHRDKNCVINKVTRNRCQYCRLQKCFEVGGSKESVRND [M69G] | -0.813 ± 0.11 |
| YKPCFVCQDKSSGYHYGVSACEGCKGFFRRSIQKNMIYTCHRDKNCVINKVTRNRCQYCRLQKCFEVGDSKESVRND [M69D] | -0.498 ± 0.26 |
| YKPCFVCQDKSSGYHYGVSACEGCKGFFRRSIQKNMIYTCHRDKNCVINKVTRNRCQYCRLQKCFEVGMHKESVRND [S70H] | 0.022 ± 0.099 |
